Measurements published in article PMC2588538, “Structure of Reovirus σ1 in Complex with Its Receptor Junctional Adhesion Molecule-A” (PLoS Pathogens, 2008).

B1: reovirus type 3 Dearing (T3D) σ1 fragment comprising the head domain and one β-spiral of the tail (σ1H; residues 293–455) (domain or fragment)
chain: GSSPNLRYPIADVSGGIGMSPNYRFRQSMWIGIVSYSGSGLNWRVQVNSDIFIVDDYIHICLPAFDGFSIADGGDLSLNFVTGLLPPLLTGDTEPAFHNDVVTYGAQTVAIGLSSGGAPQYMSKNLWVEQWQDGVLRLRVEGGGSITHSNSKWPAMTVSYPRSFT
notes: two non-native residues left at the N-terminus after removal of GST, numbered Gly291 and Ser292; reovirus attachment protein σ1, strain type 3 Dearing (T3D), residues 293-455 (head domain and one β-spiral of the tail); Trimer in the crystal; also called T3D σ1 head domain; not shown: GST, N-terminal, cleaved
B2: D1 domain of human junctional adhesion molecule-A (hJAM-A D1; residues 28–129) (domain or fragment)
chain: GSSVTVHSSEPEVRIPENNPVKLSCAYSGFSSPRVEWKFDQGDTTRLVCYNNKITASYEDRVTFLPTGITFKSVTREDTGTYTCMVSEEGGNSYGEVKVKLIVL
notes: two non-native residues left at the N-terminus after removal of GST, numbered Gly26 and Ser27; human junctional adhesion molecule-A, membrane-distal D1 domain, residues 28-129; Homodimer in solution at neutral pH; also called wt D1; source: E. coli BL21 (DE3) pLysS, purified (GSTrap, on-column thrombin cleavage, SEC); not shown: GST, N-terminal, cleaved

Columns and labels:
CAR (Homo sapiens) = CAR (Homo sapiens) (UniProt P78310); settings: cited from earlier work
[1] = target: the molecule itself; test: crystal structure; σ1H-D1 complex, 3.4 Å, space group P2_(1)2_(1)2; crystals from 0.1 M CHES pH 9.5, polyethylene glycol 3350, 20°C; two σ1H trimers each with three D1 monomers in the asymmetric unit
[2] = target: the molecule itself; test: AUC; sedimentation velocity, 50 krpm, 25°C, 20 mM Tris pH 7.5, 100 mM NaCl; five concentrations 0.06 to 1.31 mg/mL; interference optics
[3] = target: the molecule itself; test: AUC; sedimentation equilibrium, 17.5/25/35 krpm, 25°C, 20 mM Tris pH 7.5, 100 mM NaCl; four concentrations 0.16 to 1.6 mg/mL; monomer-dimer model with variable amounts of tetramer; dimer to monomers
[4] = target: B1; test: crystal structure; σ1H-D1 complex, 3.4 Å, space group P2_(1)2_(1)2; crystals from 0.1 M CHES pH 9.5, polyethylene glycol 3350, 20°C; two σ1H trimers each with three D1 monomers in the asymmetric unit; settings: both partners purified

Q: With CAR (from UniProt P78310) as the molecule, how does the Kd (CAR (Homo sapiens)) read?
A: 16 µM

Q: Which “stoichiometry N” value [1] does the source give for B1 here?
A: 3

Q: With B2 as the molecule, how does the “stoichiometry N” value [2] read?
A: 2

Q: And the Kd [3]?
A: 11 µM

Q: Does B2 bind [4]?
A: binds
